Target: Mycobacterium tuberculosis polyketide synthase 13 (Mt-Pks13) (Mycobacterium tuberculosis) (UniProt I6X8D2)
Assay: AUC; sedimentation velocity at pH 6 (of a series from pH 6 to 8); triple buffer (20 mM each sodium acetate, Tris/HCl, CHES), 150 mM NaCl, 2.5 mM βME; 30 000 r.p.m.; 4 °C or 20 °C; dimer to monomers

Mycobacterium tuberculosis polyketide synthase 13 (Mt-Pks13) (from UniProt I6X8D2 1-1733) (enzyme)
stoichiometry N: 2

Reference: paper PMC11649247
